Results published in the supplement of paper PMC10065799, “High-throughput profiling of sequence recognition by tyrosine kinases and SH2 domains using bacterial peptide display” (eLife, 2023).

Tests used:
Fes = Fes (UniProt P07332); assay: phosphorylation enrichment, bacterial display (enrichment ratio); higher = better substrate or ligand; peptides without Tyr show the background
EPHB2 = EPHB2 (UniProt P29323); assay: as above
c-Src = assay: as above
Hck = Hck (UniProt P08631); assay: as above
Chain of Hck (P08631 whole entry, looked up): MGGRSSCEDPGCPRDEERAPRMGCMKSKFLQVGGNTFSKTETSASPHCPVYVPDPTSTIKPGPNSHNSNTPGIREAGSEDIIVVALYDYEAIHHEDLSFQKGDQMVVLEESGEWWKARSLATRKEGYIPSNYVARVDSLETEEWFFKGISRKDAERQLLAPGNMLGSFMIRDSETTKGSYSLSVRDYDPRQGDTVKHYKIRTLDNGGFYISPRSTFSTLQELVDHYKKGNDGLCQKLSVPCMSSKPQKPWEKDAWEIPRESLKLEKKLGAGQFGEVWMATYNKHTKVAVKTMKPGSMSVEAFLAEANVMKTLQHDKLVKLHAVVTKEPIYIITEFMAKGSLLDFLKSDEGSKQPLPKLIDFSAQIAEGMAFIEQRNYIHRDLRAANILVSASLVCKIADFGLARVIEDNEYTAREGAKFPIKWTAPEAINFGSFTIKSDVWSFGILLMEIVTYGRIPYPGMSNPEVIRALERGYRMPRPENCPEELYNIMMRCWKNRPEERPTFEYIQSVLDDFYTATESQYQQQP

AncSZ = assay: as above
FGFR1 = FGFR1 (UniProt P11362); assay: as above
EPHB1 = EPHB1 (UniProt P54762); assay: as above
Chain of EPHB1 (P54762 whole entry, looked up): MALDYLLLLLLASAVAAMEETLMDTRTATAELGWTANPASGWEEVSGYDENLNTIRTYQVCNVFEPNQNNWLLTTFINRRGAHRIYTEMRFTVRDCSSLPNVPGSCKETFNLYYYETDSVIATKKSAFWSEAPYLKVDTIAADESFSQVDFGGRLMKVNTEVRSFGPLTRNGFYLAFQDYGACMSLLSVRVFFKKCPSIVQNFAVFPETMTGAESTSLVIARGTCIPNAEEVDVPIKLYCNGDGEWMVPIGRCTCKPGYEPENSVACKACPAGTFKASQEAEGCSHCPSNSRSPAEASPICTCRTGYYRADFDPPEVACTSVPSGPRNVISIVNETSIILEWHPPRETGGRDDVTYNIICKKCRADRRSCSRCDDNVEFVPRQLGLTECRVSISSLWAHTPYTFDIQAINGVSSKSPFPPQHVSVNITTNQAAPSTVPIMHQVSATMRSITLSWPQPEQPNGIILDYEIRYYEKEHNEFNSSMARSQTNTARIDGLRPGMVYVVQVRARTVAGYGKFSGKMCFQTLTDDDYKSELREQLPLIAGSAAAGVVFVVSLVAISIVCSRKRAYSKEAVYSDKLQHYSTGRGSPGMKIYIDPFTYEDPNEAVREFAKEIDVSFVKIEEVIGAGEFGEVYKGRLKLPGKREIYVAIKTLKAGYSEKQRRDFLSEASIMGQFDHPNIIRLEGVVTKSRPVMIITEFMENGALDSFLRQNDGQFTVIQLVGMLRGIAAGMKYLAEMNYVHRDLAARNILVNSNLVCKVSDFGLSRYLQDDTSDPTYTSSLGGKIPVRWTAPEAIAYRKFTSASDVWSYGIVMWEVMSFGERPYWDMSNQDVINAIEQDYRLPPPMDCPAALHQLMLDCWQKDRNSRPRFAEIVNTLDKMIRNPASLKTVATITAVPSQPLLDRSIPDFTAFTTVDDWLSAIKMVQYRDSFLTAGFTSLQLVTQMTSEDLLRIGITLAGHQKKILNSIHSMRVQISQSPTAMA

MERTK = MERTK (UniProt Q12866); assay: as above
Jak2 = Jak2 (UniProt O60674); assay: as above
Chain of Jak2 (O60674 whole entry, looked up): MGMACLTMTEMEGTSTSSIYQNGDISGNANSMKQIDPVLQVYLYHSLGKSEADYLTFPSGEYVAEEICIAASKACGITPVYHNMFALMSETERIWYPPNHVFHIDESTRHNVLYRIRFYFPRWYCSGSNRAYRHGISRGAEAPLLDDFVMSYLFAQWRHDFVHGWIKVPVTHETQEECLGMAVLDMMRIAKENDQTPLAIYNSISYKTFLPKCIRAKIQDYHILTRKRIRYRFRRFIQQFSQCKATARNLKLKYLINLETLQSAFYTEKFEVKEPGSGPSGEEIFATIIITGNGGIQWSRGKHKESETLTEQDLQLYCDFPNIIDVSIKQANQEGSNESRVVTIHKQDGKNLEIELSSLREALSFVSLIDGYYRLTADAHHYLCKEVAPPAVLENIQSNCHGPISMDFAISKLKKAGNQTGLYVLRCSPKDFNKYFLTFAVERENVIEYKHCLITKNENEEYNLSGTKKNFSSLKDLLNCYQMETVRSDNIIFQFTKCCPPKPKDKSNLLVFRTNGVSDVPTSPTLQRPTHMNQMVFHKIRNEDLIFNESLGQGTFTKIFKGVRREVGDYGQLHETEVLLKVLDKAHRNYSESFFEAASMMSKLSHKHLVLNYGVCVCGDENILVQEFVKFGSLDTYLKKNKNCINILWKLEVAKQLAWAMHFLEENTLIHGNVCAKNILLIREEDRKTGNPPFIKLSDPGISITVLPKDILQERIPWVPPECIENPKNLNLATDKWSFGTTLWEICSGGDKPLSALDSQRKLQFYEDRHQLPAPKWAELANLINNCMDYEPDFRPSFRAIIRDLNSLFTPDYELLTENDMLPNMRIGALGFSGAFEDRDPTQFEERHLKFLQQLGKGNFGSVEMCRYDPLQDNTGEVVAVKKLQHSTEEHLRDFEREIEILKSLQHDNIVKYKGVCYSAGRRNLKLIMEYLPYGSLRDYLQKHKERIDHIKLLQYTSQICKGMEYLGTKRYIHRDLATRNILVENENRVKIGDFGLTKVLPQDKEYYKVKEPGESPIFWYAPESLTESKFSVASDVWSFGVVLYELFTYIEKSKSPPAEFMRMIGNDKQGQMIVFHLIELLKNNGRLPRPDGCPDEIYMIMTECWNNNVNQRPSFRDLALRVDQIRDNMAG

FGFR3 = FGFR3 (UniProt P22607); assay: as above
Chain of FGFR3 (P22607 whole entry, looked up): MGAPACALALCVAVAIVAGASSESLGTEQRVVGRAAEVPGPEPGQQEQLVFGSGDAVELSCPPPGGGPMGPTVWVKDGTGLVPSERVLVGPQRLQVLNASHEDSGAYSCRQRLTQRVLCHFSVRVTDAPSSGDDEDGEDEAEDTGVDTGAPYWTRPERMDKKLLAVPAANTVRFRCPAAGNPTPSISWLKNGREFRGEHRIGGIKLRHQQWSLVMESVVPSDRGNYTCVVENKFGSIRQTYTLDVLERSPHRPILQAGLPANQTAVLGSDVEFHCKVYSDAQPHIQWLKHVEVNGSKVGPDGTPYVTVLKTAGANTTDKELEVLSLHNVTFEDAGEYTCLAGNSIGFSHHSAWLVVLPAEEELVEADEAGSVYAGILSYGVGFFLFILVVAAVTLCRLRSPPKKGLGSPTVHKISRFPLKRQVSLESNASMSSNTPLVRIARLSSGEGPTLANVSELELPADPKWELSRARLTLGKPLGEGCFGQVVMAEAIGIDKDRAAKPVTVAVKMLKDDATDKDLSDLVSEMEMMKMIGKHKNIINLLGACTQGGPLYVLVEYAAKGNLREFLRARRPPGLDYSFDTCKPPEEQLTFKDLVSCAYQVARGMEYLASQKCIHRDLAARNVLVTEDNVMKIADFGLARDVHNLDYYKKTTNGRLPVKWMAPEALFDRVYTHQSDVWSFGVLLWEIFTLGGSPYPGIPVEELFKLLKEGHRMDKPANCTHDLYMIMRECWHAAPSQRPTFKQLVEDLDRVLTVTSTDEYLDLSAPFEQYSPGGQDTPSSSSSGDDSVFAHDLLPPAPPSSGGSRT

Fyn = Fyn (UniProt P06241); assay: as above
Chain of Fyn (P06241 whole entry, looked up): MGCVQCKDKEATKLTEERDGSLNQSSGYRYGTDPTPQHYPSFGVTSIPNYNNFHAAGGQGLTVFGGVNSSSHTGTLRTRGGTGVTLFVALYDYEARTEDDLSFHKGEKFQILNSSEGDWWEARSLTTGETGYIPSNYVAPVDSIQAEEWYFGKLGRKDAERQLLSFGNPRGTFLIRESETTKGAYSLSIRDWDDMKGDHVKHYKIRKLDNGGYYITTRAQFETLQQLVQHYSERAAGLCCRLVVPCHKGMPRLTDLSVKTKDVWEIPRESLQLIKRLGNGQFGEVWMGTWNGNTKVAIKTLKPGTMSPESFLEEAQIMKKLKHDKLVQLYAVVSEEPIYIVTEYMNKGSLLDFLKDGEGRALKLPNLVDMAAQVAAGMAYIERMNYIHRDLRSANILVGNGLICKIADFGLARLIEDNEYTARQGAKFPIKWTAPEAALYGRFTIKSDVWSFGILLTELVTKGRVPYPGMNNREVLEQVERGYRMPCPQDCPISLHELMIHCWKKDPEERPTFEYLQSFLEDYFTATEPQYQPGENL

c-Abl (mouse) = assay: as above
Fer (mouse) = assay: as above
c-Src SH2 = assay: SH2 binding enrichment of the phosphorylated peptide, bacterial display (enrichment ratio); higher = better substrate or ligand; peptides without Tyr show the background
Grb2 SH2 = Grb2 SH2 (UniProt P62993); assay: as above
Chain of Grb2 SH2 (P62993 whole entry, looked up): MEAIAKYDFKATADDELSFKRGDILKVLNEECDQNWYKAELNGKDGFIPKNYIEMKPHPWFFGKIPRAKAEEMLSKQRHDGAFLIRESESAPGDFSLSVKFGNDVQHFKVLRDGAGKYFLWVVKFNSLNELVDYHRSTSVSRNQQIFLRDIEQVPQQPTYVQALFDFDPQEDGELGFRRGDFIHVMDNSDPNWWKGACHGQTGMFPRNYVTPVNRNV

SHP2-C SH2 = assay: as above
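Wherever SH2 binding enrichment of the phosphorylated peptide, bacterial display is given: peptide library displayed on the E. coli surface as eCPX fusions, selected cells deep-sequenced, score is each peptide's frequency after selection divided by its frequency in the input.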
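Wherever phosphorylation enrichment, bacterial display is given: 11-residue human phosphosite peptides and single-mutation variants displayed on the E. coli surface, counted by deep sequencing, each peptide's frequency after selection divided by its frequency in the unselected input library; frequency after pTyr selection over input frequency; kinase dosed for 20-30% of maximal phosphorylation in three min.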

Chain of Fes (P07332 whole entry, looked up): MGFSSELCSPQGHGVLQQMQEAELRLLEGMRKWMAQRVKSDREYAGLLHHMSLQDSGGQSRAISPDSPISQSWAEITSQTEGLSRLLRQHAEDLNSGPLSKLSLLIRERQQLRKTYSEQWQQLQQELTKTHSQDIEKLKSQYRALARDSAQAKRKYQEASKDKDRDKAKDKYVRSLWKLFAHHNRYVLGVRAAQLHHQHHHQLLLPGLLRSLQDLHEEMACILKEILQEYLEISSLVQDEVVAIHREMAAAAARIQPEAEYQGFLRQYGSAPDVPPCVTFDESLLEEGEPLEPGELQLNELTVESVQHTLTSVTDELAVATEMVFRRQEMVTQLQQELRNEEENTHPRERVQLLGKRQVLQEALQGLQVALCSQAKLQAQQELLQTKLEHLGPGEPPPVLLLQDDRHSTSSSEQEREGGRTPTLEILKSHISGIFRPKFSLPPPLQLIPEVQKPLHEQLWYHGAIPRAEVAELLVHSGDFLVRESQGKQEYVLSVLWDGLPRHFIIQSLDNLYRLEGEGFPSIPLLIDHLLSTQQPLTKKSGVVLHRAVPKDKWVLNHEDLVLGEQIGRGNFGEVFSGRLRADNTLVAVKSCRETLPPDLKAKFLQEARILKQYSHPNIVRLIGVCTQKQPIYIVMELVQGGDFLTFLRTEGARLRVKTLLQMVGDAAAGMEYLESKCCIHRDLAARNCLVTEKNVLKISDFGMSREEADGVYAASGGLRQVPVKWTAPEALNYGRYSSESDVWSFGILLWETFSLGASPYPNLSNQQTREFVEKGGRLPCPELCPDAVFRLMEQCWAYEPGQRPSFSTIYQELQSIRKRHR

| Sequence | phosphorylation enrichment (Fes) | phosphorylation enrichment (EPHB2) | phosphorylation enrichment (c-Src) | phosphorylation enrichment (Hck) | phosphorylation enrichment (AncSZ) | phosphorylation enrichment (FGFR1) | phosphorylation enrichment (EPHB1) | phosphorylation enrichment (MERTK) | phosphorylation enrichment (Jak2) | phosphorylation enrichment (FGFR3) | phosphorylation enrichment (Fyn) | phosphorylation enrichment (c-Abl (mouse)) | phosphorylation enrichment (Fer (mouse)) | SH2 binding enrichment (c-Src SH2) | SH2 binding enrichment (Grb2 SH2) | SH2 binding enrichment (SHP2-C SH2) |
| --- | --- | --- | --- | --- | --- | --- | --- | --- | --- | --- | --- | --- | --- | --- | --- | --- |
| ATGMEYLASQK [FGFR2_Y616_R612T] | 0.794 | 0.495 | 0.44 | 0.474 | 0.736 | 0.464 | 0.479 | 0.423 | 0.68 | 0.833 | 0.559 | 0.58 | 0.426 | 0.465 | 1.01 | 0.571 |
| YLEKYYKFGSR [NNMT_Y25] | 0.779 | 0.48 | 0.654 | 0.473 | 0.69 | 0.524 | 0.453 | 0.407 | 0.604 | 0.553 | 0.501 | 0.59 | 0.508 | 0.523 | 0.9 | 0.604 |
| DLDTEYGSGYP [RNASEH2A_Y206_D205E] | 1.01 | 0.542 | 0.549 | 0.546 | 1.23 | 0.507 | 0.652 | 0.379 | 1.17 | 0.652 | 0.49 | 0.727 | 0.505 | 0.531 | 0.7 | 0.464 |
| CERLPYDANKW [FLT1_Y815_S818N] | 1.16 | 0.602 | 0.477 | 0.43 | 1.11 | 0.422 | 0.626 | 0.415 | 1.01 | 0.817 | 0.506 | 0.804 | 0.615 | 0.492 | 0.619 | 0.754 |
| VSTAVYKRFPS [BEST1_Y148] | 0.733 | 0.382 | 0.395 | 0.426 | 0.512 | 0.498 | 0.348 | 0.526 | 0.593 | 0.463 | 0.379 | 0.668 | 0.395 | 0.414 | 0.748 | 0.647 |
| VVQGIYGFHHF [UFSP2_Y285_YF] | 1.62 | 5.04 | 7.39 | 8.93 | 0.886 | 0.693 | 1.75 | 9.74 | 0.846 | 0.502 | 10.1 | 5.3 | 16.3 | 0.83 | 1.03 | 0.923 |
| SNYRAYATEPQ [TNNI3_Y29_H34Q] | 0.72 | 0.467 | 0.44 | 0.497 | 0.699 | 0.389 | 0.461 | 0.428 | 0.597 | 0.475 | 0.419 | 0.464 | 0.444 | 0.384 | 0.75 | 0.672 |
| AEDKPYAELWM [MPI_Y46] | 1.34 | 0.729 | 3.47 | 1.44 | 1.38 | 1.45 | 0.868 | 1.4 | 1.09 | 1.34 | 2.27 | 0.854 | 10.8 | 2.15 | 0.778 | 1.21 |
| EPGNLYIAKVE [CNTN4_Y180_T176P] | 1.09 | 0.482 | 0.439 | 0.502 | 0.833 | 0.435 | 0.454 | 0.347 | 0.898 | 0.605 | 0.386 | 0.665 | 0.408 | 0.405 | 0.788 | 0.553 |
| EFEGLYQEGGG [TMEM159_Y159] | 0.939 | 0.579 | 0.658 | 0.842 | 0.974 | 0.5 | 0.576 | 0.456 | 0.781 | 0.612 | 0.675 | 0.551 | 0.585 | 0.607 | 1.51 | 0.789 |
| CTTIHYNFMCN [TP53_Y234_Y236F] | 0.923 | 0.485 | 0.487 | 0.456 | 0.861 | 0.509 | 0.428 | 0.405 | 0.824 | 0.645 | 0.436 | 0.661 | 0.516 | 1.84 | 1.8 | 1.93 |
| GSSKIYFLHAD [TLR5_Y108_P112A] | 0.984 | 0.557 | 0.893 | 0.712 | 0.862 | 0.8 | 0.492 | 0.797 | 0.954 | 0.731 | 0.951 | 0.579 | 0.423 | 0.833 | 1.12 | 1.19 |
| RPSGRYPVARR [SHANK3_Y1569] | 0.611 | 0.567 | 0.782 | 0.767 | 0.782 | 0.669 | 0.734 | 0.664 | 0.619 | 1.05 | 0.985 | 0.677 | 0.695 | 0.464 | 0.541 | 0.514 |
| IFQASYFRRGD [LTK_Y676_R673Q_YF] | 1.23 | 0.518 | 0.543 | 0.517 | 1.05 | 0.544 | 0.516 | 0.628 | 1.18 | 0.619 | 0.499 | 0.789 | 0.416 | 0.48 | 0.835 | 0.607 |
| QTLTDYDTRFF [CSNK2A3_Y131_I133T_YF] | 1.09 | 0.823 | 0.573 | 1.06 | 0.909 | 0.666 | 0.506 | 0.473 | 0.832 | 0.912 | 0.702 | 0.725 | 0.684 | 0.708 | 0.862 | 0.852 |
| QKLPLYILENN [VPS13B_Y2774_S2773L] | 1.28 | 0.607 | 0.964 | 0.709 | 0.967 | 0.81 | 0.942 | 0.758 | 1.06 | 0.761 | 0.556 | 1 | 0.551 | 0.642 | 0.746 | 0.802 |
| RNEAFYDTFST [EFCAB3_Y372_S370A] | 1.14 | 3.35 | 10 | 10.2 | 1.32 | 0.652 | 1.98 | 14.4 | 1.46 | 0.811 | 11.3 | 4.17 | 7.96 | 0.801 | 1.05 | 0.842 |

| Sequence | phosphorylation enrichment (Fes) | phosphorylation enrichment (EPHB2) | phosphorylation enrichment (c-Src) | phosphorylation enrichment (Hck) | phosphorylation enrichment (AncSZ) | phosphorylation enrichment (FGFR1) | phosphorylation enrichment (EPHB1) | phosphorylation enrichment (MERTK) | phosphorylation enrichment (Jak2) | phosphorylation enrichment (FGFR3) | phosphorylation enrichment (Fyn) | phosphorylation enrichment (c-Abl (mouse)) | phosphorylation enrichment (Fer (mouse)) | SH2 binding enrichment (c-Src SH2) | SH2 binding enrichment (Grb2 SH2) | SH2 binding enrichment (SHP2-C SH2) |
| --- | --- | --- | --- | --- | --- | --- | --- | --- | --- | --- | --- | --- | --- | --- | --- | --- |
| PARLEYYENEK [IRS1_Y46] | 1.26 | 0.723 | 0.711 | 0.48 | 1.26 | 0.533 | 0.613 | 0.547 | 1.17 | 0.882 | 0.732 | 0.725 | 0.25 | 18.6 | 3.84 | 1.35 |
| SEKISYVYMKR [SSX7_Y48_L43S] | 0.967 | 0.504 | 0.444 | 0.479 | 0.912 | 0.6 | 0.553 | 0.385 | 0.964 | 0.748 | 0.469 | 0.538 | 0.387 | 0.993 | 1.15 | 3.87 |
| PSVVAYPKRSQ [MARK3_Y432] | 0.793 | 0.413 | 0.309 | 0.573 | 0.834 | 0.39 | 0.517 | 0.409 | 0.531 | 0.949 | 0.565 | 0.522 | 0.531 | 0.367 | 0.554 | 0.476 |
| KHMADYPDCKY [SOX11_Y113_Y116C] | 1.01 | 0.783 | 0.368 | 0.55 | 0.65 | 0.635 | 0.483 | 0.375 | 1.07 | 1.31 | 0.251 | 1.36 | 0.504 | 1.92 | 0.863 | 1.59 |
| VEDQFYRVDCF [FHL1_Y208_C209R_YF] | 1.34 | 0.587 | 1.1 | 0.551 | 1.16 | 0.522 | 0.692 | 0.557 | 1.24 | 0.831 | 0.693 | 0.863 | 0.559 | 0.515 | 0.875 | 0.601 |
| ELPEKYSQNIY [PKP2_Y626] | 0.921 | 0.526 | 0.575 | 0.905 | 0.905 | 0.52 | 0.459 | 0.384 | 0.891 | 0.763 | 0.762 | 0.658 | 0.475 | 0.419 | 0.891 | 0.555 |
| RFMVGYEMLAQ [GALT_Y339_K334R] | 1.41 | 0.811 | 0.83 | 0.751 | 1.38 | 0.875 | 0.939 | 0.635 | 1.4 | 0.873 | 0.719 | 0.849 | 0.677 | 2.32 | 0.836 | 0.617 |
| ATRKAYGQALA [TKT_Y321] | 0.612 | 0.348 | 0.366 | 0.412 | 0.468 | 0.391 | 0.31 | 0.432 | 0.481 | 0.395 | 0.335 | 0.415 | 0.36 | 0.622 | 0.965 | 0.594 |
| MMVGAYSSLEG [ECPAS_Y470_T472S] | 0.754 | 0.434 | 0.671 | 0.832 | 0.631 | 0.514 | 0.469 | 1.97 | 0.563 | 0.515 | 0.533 | 0.785 | 0.528 | 7.6 | 0.82 | 0.77 |
| LERYIYNREEY [HLA-DPB1_Y59_F64Y] | 1.25 | 0.982 | 3.15 | 1.72 | 1.08 | 0.726 | 0.568 | 0.719 | 0.998 | 0.903 | 1.77 | 0.752 | 0.519 | 1.8 | 1.08 | 0.642 |
| WNDLDYMDSRR [GAA_Y407] | 1.26 | 0.532 | 0.646 | 0.471 | 1.34 | 0.59 | 0.698 | 0.371 | 1.4 | 0.674 | 0.451 | 0.864 | 0.427 | 0.553 | 0.936 | 0.622 |
| SKNSKYNAGST [PSEN1_Y315_E318G] | 0.776 | 0.654 | 0.737 | 0.442 | 0.535 | 0.358 | 0.307 | 0.536 | 0.608 | 0.439 | 0.59 | 0.677 | 0.436 | 0.349 | 0.581 | 0.557 |
| TTEHIYGDKFF [UBA7_Y524_N527K] | 0.762 | 0.477 | 4.65 | 2.15 | 0.722 | 0.597 | 0.468 | 0.459 | 0.648 | 0.563 | 4.92 | 0.728 | 0.502 | 0.471 | 0.704 | 0.655 |
| DSSIRYLQEIH [FGG_Y135_Y140H] | 0.667 | 0.402 | 0.347 | 0.356 | 0.597 | 0.384 | 0.378 | 0.369 | 0.561 | 0.509 | 0.388 | 0.524 | 0.33 | 0.499 | 0.705 | 0.667 |
| FGLTLYPNSRE [MEP1A_Y472_V469L] | 1.09 | 0.56 | 0.394 | 0.397 | 0.911 | 0.682 | 0.55 | 0.385 | 0.68 | 0.698 | 0.471 | 0.629 | 0.413 | 0.661 | 1.12 | 0.893 |
| NYDLDYDSVQP [MYC_Y16] | 1.63 | 1.96 | 1.18 | 0.78 | 3.13 | 0.74 | 1.19 | 0.493 | 1.39 | 1.03 | 0.659 | 1.02 | 1.09 | 1.26 | 0.804 | 0.532 |
